Here are results for 6 molecules from paper PMC12405487.

The target in data set [1] is furin (human) (UniProt P09958). Briefly: enzyme inhibition kinetics (fluorogenic substrate); condition 2: 50 mM Mes/NaOH pH 6.0, 300 mM NaCl, 2 mM CaCl2, 0.2% Triton X-100, 25 °C; substrate Ac-RR(Tle)KR-AMC; triplicates.
The target in data set [2] is furin (human) (UniProt P09958). As to the kind of experiment: enzyme inhibition kinetics (fluorogenic substrate); condition 3: 50 mM Hepes/NaOH pH 7.4, 300 mM NaCl, 2 mM CaCl2, 0.2% Triton X-100, 25 °C; substrate Ac-RR(Tle)KR-AMC; triplicates.
The target of a further data set is His75 (UniProt position 75, FKHKNHPRRSR). As to the kind of experiment: NMR. The following applies: 278 K (~5 °C); 150 mM NaCl plus 50 mM sodium phosphate; 50 mM NaH2PO4/Na2HPO4, 150 mM NaCl. The pH was set by dialysis into buffer of the adjusted pH, not by direct acid addition.; Isolated (furin-free) folded prodomain, 0.2 mM.
The next data set deals with His85 (UniProt position 85, RRSAFHITKRL). As to the kind of experiment: NMR. As to conditions: 278 K (~5 °C); 150 mM NaCl plus 50 mM sodium phosphate; 50 mM NaH2PO4/Na2HPO4, 150 mM NaCl. The pH was set by dialysis into buffer of the adjusted pH, not by direct acid addition.; Isolated (furin-free) folded prodomain, 0.2 mM.
For a further data set, the target named is His72 (UniProt position 72, HYLFKHKNHPR). As to the kind of experiment: NMR. As to conditions: 278 K (~5 °C); 150 mM NaCl plus 50 mM sodium phosphate; 50 mM NaH2PO4/Na2HPO4, 150 mM NaCl. The pH was set by dialysis into buffer of the adjusted pH, not by direct acid addition.; Isolated (furin-free) folded prodomain, 0.2 mM.
Data set [3] addresses furin (soluble, mature, active) (UniProt P09958). As to the kind of experiment: NMR, 2D 1H-15N HMBC of histidine side chains as a function of pH (600 MHz). As to conditions: pH 6.3-7.4; 278 K (~5 °C); 150 mM NaCl; 50 mM NaH2PO4/Na2HPO4 at each adjusted pH.

Chain of furin (soluble, mature, active) (P09958 whole entry): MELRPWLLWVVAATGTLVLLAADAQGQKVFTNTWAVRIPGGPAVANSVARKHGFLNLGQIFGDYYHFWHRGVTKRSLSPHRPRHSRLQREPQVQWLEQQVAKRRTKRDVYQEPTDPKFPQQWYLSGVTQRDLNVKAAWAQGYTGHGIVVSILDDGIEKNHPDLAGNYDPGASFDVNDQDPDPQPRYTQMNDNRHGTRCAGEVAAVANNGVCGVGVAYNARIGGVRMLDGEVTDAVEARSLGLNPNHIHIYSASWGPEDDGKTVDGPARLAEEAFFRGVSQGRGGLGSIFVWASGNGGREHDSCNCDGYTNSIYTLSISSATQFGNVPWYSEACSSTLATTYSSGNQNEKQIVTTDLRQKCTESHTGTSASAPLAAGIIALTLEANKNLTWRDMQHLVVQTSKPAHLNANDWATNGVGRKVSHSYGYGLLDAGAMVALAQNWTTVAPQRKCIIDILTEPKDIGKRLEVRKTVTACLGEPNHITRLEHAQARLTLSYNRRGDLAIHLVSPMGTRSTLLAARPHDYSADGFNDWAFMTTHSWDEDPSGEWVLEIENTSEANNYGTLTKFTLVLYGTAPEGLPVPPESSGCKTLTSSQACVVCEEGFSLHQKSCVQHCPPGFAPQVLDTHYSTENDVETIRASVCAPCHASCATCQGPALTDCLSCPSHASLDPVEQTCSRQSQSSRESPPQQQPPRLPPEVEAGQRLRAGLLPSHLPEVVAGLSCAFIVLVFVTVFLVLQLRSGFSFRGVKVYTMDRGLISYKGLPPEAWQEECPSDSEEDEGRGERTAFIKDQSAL

Take “PC1/3-prodomain mutant M1 (R78A) (from UniProt P29120 28-110) (domain or fragment)”: the inhibitory constant (Ki) (as a rule, the dissociation constant of the complex between target and ligand, obtained from inhibition or displacement) with furin (human) [1] was 2.2 nM; in the data set with furin (human) [2], 0.56 nM.
For the molecule “Proprotein convertase 1/3 (PC1/3, neuroendocrine convertase 1) prodomain, wild type (Homo sapiens)”, the pKa (usually the pH at which an ionisable group is half protonated) with His75 is listed as 5.03; in the data set with His85 it was 5.60; with His72, 4.82.
In the case of “PC1/3-prodomain mutant M2 ((77)A-R-S-A-A) (from UniProt P29120 28-110) (domain or fragment)”, the Ki with furin (human) [1] came to 0.88 nM; with furin (human) [2], 0.73 nM.
“PC1/3-prodomain mutant M5 ((77)R-K-S-A-R) (from UniProt P29120 28-110) (domain or fragment)” showed a Ki in the data set with furin (human) [2] of 0.139 nM.
Take “PC1/3-prodomain, wild type (15N-labelled for NMR)”: in data set [3], the pKa, His72 of the PC1/3-prodomain (WT) turned out to be 4.82 pH units; the pKa, His75 of the PC1/3-prodomain (WT) turned out to be 5.03 pH units; the pKa, His85 of the PC1/3-prodomain (WT) amounted to 5.6 pH units.

B1: PC1/3-prodomain combination mutant M10 (M5 with His72Leu) (domain or fragment)
chain: GKRQFVNEWAAEIPGGPEAASAIAEELGYDLLGQIGSLENHYLFKLKNHPRKSARSAFHITKRLSDDDRVIWAEQQYEKERSKR
Take B1: the Ki turned out to be 0.14 nM in the data set with furin (human) [1] and 0.101 nM with furin (human) [2].
